Measured values taken from US20160068813A1, “DIFFERENTIATION OF ADIPOSE STROMAL CELLS INTO OSTEOBLASTS AND USES THEREOF” (Artecel Sciences Inc., priority 1997, published 2016).

Test system: stromal cells isolated from adipose tissue
Test: Effect of compounds on osteoblast differentiation of adipose stromal cells, measured by secreted osteocalcin
Assay type: cell-based, human
Settings: differentiated as in Example 2 in presence and absence of compound; secreted osteocalcin assay; data not shown
Method: Adipose stromal cells were isolated as described in Example 1 and then treated as follows to induce differentiation into osteoblasts. Stromal cells were plated in 24-well and/or 6-well tissue culture plates in stromal cell medium (see above) at a density of about 22,000 cells/cm^2. After 24 hours, the stromal cell medium was replaced with osteoblast differentiation medium (DMEM with 10% fetal bovine serum (v/v); 10 mM β-glycerophosphate; 50 μg/ml ascorbate-2-phosphate; 60 U/ml penicillin; 60 U/ml streptomycin; 15 μg/ml amphotericin B). The osteoblast differentiation medium was replaced with fresh medium every 3 days for 3 weeks. When changing the media, one ml of conditioned media was collected and stored at −80° C. for later analysis of secreted factors. […]
Biochemical changes indicative of osteoblast differentiation were also assessed. Osteocalcin is an osteoblast-specific secreted protein that can be measured by ELISA (Intact Human Osteocalcin K EIA kit, catalog number BT-460, Biomedical Technologies, Inc., Stoughton, Mass.). […]
Cultures of stromal cells isolated from adipose tissue according to the method described in Example 1 were used to study the effect compounds of interest on osteoblast differentiation. […] Differentiation was measured by assays for secreted osteocalcin. […]

B1: bone morphogenetic protein 4: bone morphogenetic protein, known osteoblast differentiation promoting agent (protein, UniProt P12644 293-408, looked up)
Bone morphogenetic protein 4: SPKHHSQRARKKNKNCRRHSLYVDFSDVGWNDWIVAPPGYQAFYCHGDCPFPLADHLNSTNHAIVQTLVNSVNSSIPKACCVPTELSAISMLYLDEYDKVVLKNYQEMVVEGCGCR
For B1, which “effect on osteoblast differentiation” value is on record?
The value was “positively affect osteoblast differentiation”.
